Columns and labels:
[1] = molecular target: T1, TbAS-A (Trypanosoma brucei, UniProt Q57WT9); experiment: ninhydrin asparagine formation assay, Km app method; format: biochemical
T1 construct: gene Tb07.27M11.260; full ORF in pET28a(+), 6-His-tagged, expressed in E. coli BL21DE3, Ni purified; predicted dimer (homology model)
T1 sequence (Q57WT9 1-351): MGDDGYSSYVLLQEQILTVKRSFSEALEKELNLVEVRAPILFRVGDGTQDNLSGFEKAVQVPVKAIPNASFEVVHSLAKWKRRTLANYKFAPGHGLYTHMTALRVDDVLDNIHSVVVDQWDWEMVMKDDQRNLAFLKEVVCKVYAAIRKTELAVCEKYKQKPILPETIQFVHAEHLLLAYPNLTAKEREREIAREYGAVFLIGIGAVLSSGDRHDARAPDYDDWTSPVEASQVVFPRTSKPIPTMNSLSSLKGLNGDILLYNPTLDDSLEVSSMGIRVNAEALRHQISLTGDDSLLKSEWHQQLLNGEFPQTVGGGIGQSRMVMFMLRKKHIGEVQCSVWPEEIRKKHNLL

[2] = molecular target: T2, TcAS-A (Trypanosoma cruzi, UniProt Q4CRM4); experiment: ninhydrin asparagine formation assay; format: biochemical
T2 construct: gene Tc00.1047053503625.10; full ORF in pET28a(+), 6-His-tagged, expressed in E. coli BL21DE3, Ni purified; predicted dimer (homology model)
T2 sequence (Q4CRM4 1-348): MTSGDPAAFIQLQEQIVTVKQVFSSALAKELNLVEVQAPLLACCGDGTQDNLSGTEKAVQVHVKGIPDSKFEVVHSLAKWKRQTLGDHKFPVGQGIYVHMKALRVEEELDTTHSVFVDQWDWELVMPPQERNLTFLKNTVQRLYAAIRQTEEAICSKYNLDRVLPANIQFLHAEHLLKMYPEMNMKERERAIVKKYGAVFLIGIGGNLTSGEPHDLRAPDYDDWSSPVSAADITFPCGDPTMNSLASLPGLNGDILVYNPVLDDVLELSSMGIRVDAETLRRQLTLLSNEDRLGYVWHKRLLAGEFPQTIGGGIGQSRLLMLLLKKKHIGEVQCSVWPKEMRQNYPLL

[3] = molecular target: T1, TbAS-A; experiment: ninhydrin asparagine formation assay; format: biochemical
[4] = molecular target: T2, TcAS-A; experiment: ninhydrin asparagine formation assay, Km app method; format: biochemical
[5] = substrate: Nc1ncnc2c1ncn2[C@@H]1O[C@H](COP(=O)(O)OP(=O)(O)OP(=O)(O)O)[C@@H](O)[C@H]1O; experiment: ninhydrin asparagine formation assay; format: biochemical, Trypanosoma cruzi; conditions: excess aspartate (>20 mM) and ammonia (>50 mM), 8.4 mM Mg2+, 85 mM Tris-HCl, 37 °C
Excerpt: (§1) ninhydrin asparagine formation assay on TcAS-A

[6] = substrate: N[C@@H](CC(=O)O)C(=O)O; experiment: ninhydrin asparagine formation assay; format: biochemical, Trypanosoma cruzi; conditions: excess ATP (>10 mM) and ammonia (>50 mM), 8.4 mM Mg2+, 85 mM Tris-HCl, 37 °C
Excerpt: as §1

[7] = substrate: NC(=O)CC[C@H](N)C(=O)O; experiment: ninhydrin asparagine formation assay; format: biochemical, Trypanosoma cruzi; conditions: excess ATP and aspartate, glutamine as nitrogen donor, 8.4 mM Mg2+, 85 mM Tris-HCl, 37 °C
Excerpt: as §1

[8] = substrate: N; experiment: purified protein; conditions: excess aspartate (>20 mM) and ATP (>10 mM), ammonia in solution as nitrogen donor, 8.4 mM Mg2+, 85 mM Tris-HCl, 37 °C
[9] = substrate: Nc1ncnc2c1ncn2[C@@H]1O[C@H](COP(=O)(O)OP(=O)(O)OP(=O)(O)O)[C@@H](O)[C@H]1O; experiment: ninhydrin asparagine formation assay; format: biochemical, Trypanosoma brucei; conditions: excess aspartate (>20 mM) and ammonia (>50 mM), 8.4 mM Mg2+, 85 mM Tris-HCl, 37 °C
Excerpt: (§2) ninhydrin asparagine formation assay on TbAS-A

[10] = substrate: N[C@@H](CC(=O)O)C(=O)O; experiment: ninhydrin asparagine formation assay; format: biochemical, Trypanosoma brucei; conditions: excess ATP (>10 mM) and ammonia (>50 mM), 8.4 mM Mg2+, 85 mM Tris-HCl, 37 °C
Excerpt: as §2

[11] = substrate: NC(=O)CC[C@H](N)C(=O)O; experiment: ninhydrin asparagine formation assay; format: biochemical, Trypanosoma brucei; conditions: excess ATP and aspartate, glutamine as nitrogen donor, 8.4 mM Mg2+, 85 mM Tris-HCl, 37 °C
Excerpt: as §2

Molecule: N[C@@H](CSS(=O)(=O)O)C(=O)O [L-cysteine-S-sulfate]
- Ki [1]: 137 µM
- IC50 [2]: 100 µM
- IC50 [3]: 126 µM
- Ki [4]: 129 µM

B1: TcAS-A (Trypanosoma cruzi strain CL Brener) (protein)
chain: MTSGDPAAFIQLQEQIVTVKQVFSSALAKELNLVEVQAPLLACCGDGTQDNLSGTEKAVQVHVKGIPDSKFEVVHSLAKWKRQTLGDHKFPVGQGIYVHMKALRVEEELDTTHSVFVDQWDWELVMPPQERNLTFLKNTVQRLYAAIRQTEEAICSKYNLDRVLPANIQFLHAEHLLKMYPEMNMKERERAIVKKYGAVFLIGIGGNLTSGEPHDLRAPDYDDWSSPVSAADITFPCGDPTMNSLASLPGLNGDILVYNPVLDDVLELSSMGIRVDAETLRRQLTLLSNEDRLGYVWHKRLLAGEFPQTIGGGIGQSRLLMLLLKKKHIGEVQCSVWPKEMRQNYPLL
notes: full ORF in pET28a(+), 6-His-tagged, expressed in E. coli BL21DE3, Ni purified; predicted dimer (homology model)
- Km [5]: 0.72 ± 0.01 mM
- kcat [5]: 3.45 ± 0.02 s⁻¹
- kcat/Km [5]: 4790 M⁻¹ s⁻¹
- Km [6]: 6.45 ± 2.05 mM
- kcat [6]: 2.41 ± 0.32 s⁻¹
- kcat/Km [6]: 374 M⁻¹ s⁻¹
- Km [7]: 15.33 ± 3.66 mM
- kcat [7]: 3.38 ± 0.41 s⁻¹
- kcat/Km [7]: 220 M⁻¹ s⁻¹
- Km [8]: 7.75 ± 1.55 mM
- kcat [8]: 2.45 s⁻¹
- kcat/Km [8]: 316 M⁻¹ s⁻¹

B2: TbAS-A (Trypanosoma brucei brucei TREU927) (protein)
chain: MGDDGYSSYVLLQEQILTVKRSFSEALEKELNLVEVRAPILFRVGDGTQDNLSGFEKAVQVPVKAIPNASFEVVHSLAKWKRRTLANYKFAPGHGLYTHMTALRVDDVLDNIHSVVVDQWDWEMVMKDDQRNLAFLKEVVCKVYAAIRKTELAVCEKYKQKPILPETIQFVHAEHLLLAYPNLTAKEREREIAREYGAVFLIGIGAVLSSGDRHDARAPDYDDWTSPVEASQVVFPRTSKPIPTMNSLSSLKGLNGDILLYNPTLDDSLEVSSMGIRVNAEALRHQISLTGDDSLLKSEWHQQLLNGEFPQTVGGGIGQSRMVMFMLRKKHIGEVQCSVWPEEIRKKHNLL
notes: as for B1
- Km [9]: 1.80 ± 0.32 mM
- kcat [9]: 6.22 ± 0.38 s⁻¹
- kcat/Km [9]: 3460 M⁻¹ s⁻¹
- Km [10]: 5.39 ± 0.31 mM
- kcat [10]: 5.31 ± 0.11 s⁻¹
- kcat/Km [10]: 985 M⁻¹ s⁻¹
- Km [11]: 8.20 ± 1.70 mM
- kcat [11]: 5.58 ± 0.48 s⁻¹
- kcat/Km [11]: 680 M⁻¹ s⁻¹
- Km [8]: 5.55 ± 0.41 mM
- kcat [8]: 5.69 s⁻¹
- kcat/Km [8]: 1030 M⁻¹ s⁻¹
